Where two headings read alike, the source gives them in different places.
Assays:
Assay in all cases: ELISA
[1] = biological target: C4BP α-chain deletant ΔCCP8 (human) (UniProt P04003)
[2] = biological target: C4BP α-chain deletant ΔCCP7 (human) (UniProt P04003)
[3] = biological target: C4BP α-chain deletant ΔCCP2 (human) (UniProt P04003)
[4] = biological target: C4BP α-chain deletant ΔCCP4 (human) (UniProt P04003)
[5] = biological target: C4BP α-chain deletant ΔCCP3 (human) (UniProt P04003)
[6] = biological target: C4BP α-chain deletant ΔCCP1 (human) (UniProt P04003)
[7] = biological target: C4BP α-chain deletant ΔCCP5 (human) (UniProt P04003)
[8] = biological target: C4BP α-chain deletant ΔCCP6 (human) (UniProt P04003)
[9] = biological target: C4BP α-chain deletant ΔCCP4 (human) (UniProt P04003); remark: listed apart in the source
[10] = biological target: C4BP α-chain deletant ΔCCP5 (human) (UniProt P04003); remark: listed apart in the source

Substance	percent loss of binding against full-length C4BP [1] [%]	percent loss of binding against full-length C4BP [2] [%]	percent loss of binding against full-length C4BP [3] [%]	percent loss of binding against full-length C4BP [4] [%]	percent increase of binding against full-length C4BP [5] [%]	percent loss of binding against full-length C4BP [6] [%]	percent loss of binding against full-length C4BP [7] [%]	percent increase of binding against full-length C4BP [8] [%]	percent loss of binding against full-length C4BP [9] [%]	percent loss of binding against full-length C4BP [10] [%]
Influenza A virus A/England/2009 (H1N1), whole virus particles (complex)	75	49	20	60	10	20	60	10	67	67
Influenza A virus A/HK/99 (H3N2), whole virus particles (complex)	75	62	80	80	10	80	80	10	–	–
